One molecule from patent US20060153883A1 (Chugai, published 2006) can be followed below.

The target in the experiment is T1, HA tag-carrying soluble HM1.24 antigen sHM164 (HM1.24 antigen extracellular region in which the C terminal … (human, UniProt Q10589 49-163, limits assumed)).
T1 construct: also called HA-sHM164
T1 sequence: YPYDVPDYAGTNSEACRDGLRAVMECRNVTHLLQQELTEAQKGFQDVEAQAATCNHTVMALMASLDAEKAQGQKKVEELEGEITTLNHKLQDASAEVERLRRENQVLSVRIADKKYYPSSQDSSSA
Kind of experiment: sandwich ELISA: anti-HA antibody coated, CHO culture supernatant, humanized anti-HM1.24 antibody as detector, AP-labeled anti-human IgG. Here is the method:
The soluble human HM1.24 ELISA described below was conducted as follows. In order to select a highly productive strain, the amount of the soluble protein produced was compared by a sandwich ELISA using anti-HA antibody (Boehringer Mannheim) and a humanized anti-HM1.24 antibody (K. Ono et al., The 20th Japan Molecular Biology Annual Meeting, General Lecture 3-501-P-478), whereby selecting the strain. Since the antigen concentration was not known because a purified antigen was not obtained, the number of the cells upon the ELISA was taken into account when comparing the concentration.
An anti-HA antibody (Boehringer Mannheim) was adjusted at 1 μg/ml in a Coating Buffer (C.B.: 0.1 mol/L sodium bicarbonate buffer, pH 9.6, 0.2% sodium azide) was added to a plane bottom 96-well plate (Nunc) in the volume of 100 μl/well, and coated overnight at 4° C.
A general note: In an ELISA, binding on a coated surface is turned into a signal by an enzyme label.

B1: reconstructed human anti-HM1.24 antibody (humanized anti-HM1.24 antibody), light chain version a and heavy chain version s described in WO98/14580 (antibody, V domains shown)
VH: QVQLVQSGAEVKKPGASVKVSCKASGYTFTPYWMQWVRQAPGQGLEWMGSIFPGDGDTRYSQKFKGRVTITADKSTSTAYMELSSLRSEDTAVYYCARGLRRGGYYFDYWGQGTTVTVSS
VL: DIQMTQSPSSLSASVGDRVTITCKASQDVNTAVAWYQQKPGKAPKLLIYSASNRYTGVPSRFSGSGSGTDFTFTISSLQPEDIATYYCQQHYSTPFTFGQGTKVEIK
notes: Plasmid names point to a human gamma 1 heavy and a kappa light constant region; It was detected with an anti-human IgG antibody in the ELISA
On to B1, for which the binding result is “binds”.
